Measurements: patent US12018081B1, “Photoconjugation reactions for modification of specific proteins on live cells” (The Regents of the University of Colorado, a body, priority 2019, dated 2024)

Tests used:
[1] = tested on: MDA-MB-468 cells; type: cell-based, human; settings: drug or prodrug only, no protein, FIG. 4
Method: Finally, having established both the photocrosslinking of the […] affibody-enzyme to EGFR on living cells and retention of protein expression before and after endocytosis, the enzymatic activity of the fusion proteins was then leveraged for cell killing by prodrug conversion. […] Next, prodrug therapy experiments were run against MDA-MB-468 cells in vitro. In 96-well plates, cells were incubated with 1 μM of WT-CodA, N23-CodA, or CodA alone. As before, after 3 h the cells were irradiated with 365 nm light for 30 min followed by further incubation to a total time of 8, 24, or 48 h. When each time point was reached, the excess affibody-enzymes were removed by washing the cells three times with PBS, and 2 mM of 5-FC was added. […] After 12 h incubation with 5-FC, excess pro-drug was removed, cells were washed with PBS, and viability was measured by MTT assay. […]
Prodrug Cytotoxicity (MTT) Assays: The MDA-MB-468 cells were grown to confluence, after which the cells were washed once with DPBS (Gibco) and then trypsinized with 0.025% trypsin-EDTA (Gibco). […] The crystals were dissolved in 100 μL isopropyl alcohol (IPA), and absorbance from the wells was measured at 570 nm in a Tecan Safire II Multimode Plate reader. The readings were then normalized to the cells that were treated with neither enzyme, enzyme-affibody, nor 5-FC/5-FU to calculate the fractional viability. […]

[2] = target: EGFR expressed on live MDA-MB-468 human breast carcinoma cells (human) (UniProt P00533); assay: cell-based or functional assay
[3] = target: Extracellular domain of purified human EGFR (Sino Biological) (human) (UniProt P00533); assay: microscale thermophoresis, AF647-labelled soluble EGFR, fusion protein titrated
[4] = Affibody-enzyme kinetic activity assay with cytosine (UV-Vis); type: biochemical; settings: 50 nM enzyme, cytosine 100-250 μM, 50 mM Tris-HCl pH 7.5
Method: Affibody-enzyme Kinetic Activity Assays with Cytosine: The enzymatic assay for N23-CodA, WT-CodA, and CodA were performed by varying substrate concentration and measuring the absorbance using a UV-VIS spectrophotometer (Agilent Technologies, Cary Series 100). A stock of 10 mM cytosine was prepared in 50 mM Tris-HCl at pH 7.5. Varying concentrations (250, 200, 150 and 100 μM) of cytosine solution were prepared from the stock and mixed with 50 nM of the enzyme and enzyme-affibodies. The reaction was run for 15 min with OD267 (cytosine) and OD260 (uracil) readings taken every 12 s. The concentration of cytosine was calculated for each time point and the kinetic parameters KM and kcat were calculated using the methods of initial rates and double reciprocal plots.

[5] = reported value for free CodA; cited from earlier work

## Nc1nc(=O)[nH]cc1F [5-FC, 5-fluorocytosine]
[1]
  baseline viability (cell viability fraction): 0.854

## O=c1[nH]cc(F)c(=O)[nH]1 [5-FU, 5-fluorouracil]
[1]
  baseline viability (cell viability fraction): 0.467

## BP-modified mutant affibody-enzyme (N23C ZEGFR:1907 affibody with benzophenone, fused to cytosine deaminase) (from UniProt P25524 2-427) (designed binder)
[2]
  cell viability of MDA-MB-468 cells by MTT assay after 5-FC prodrug: 50 to 55%
[3]
  Kd: 0.044 µM

## WT affibody-fused CodA (ZEGFR:1907 affibody fused to cytosine deaminase) (from UniProt P25524 2-427) (designed binder)
[3]
  Kd: 0.025 µM

B1: CodA: Cytosine deaminase, bacterial enzyme of E. coli, alone without affibody (protein, UniProt P25524 2-427, looked up)
Cytosine deaminase: SNNALQTIINARLPGEEGLWQIHLQDGKISAIDAQSGVMPITENSLDAEQGLVIPPFVEPHIHLDTTQTAGQPNWNQSGTLFEGIERWAERKALLTHDDVKQRAWQTLKWQIANGIQHVRTHVDVSDATLTALKAMLEVKQEVAPWIDLQIVAFPQEGILSYPNGEALLEEALRLGADVVGAIPHFEFTREYGVESLHKTFALAQKYDRLIDVHCDEIDDEQSRFVETVAALAHHEGMGARVTASHTTAMHSYNGAYTSRLFRLLKMSGINFVANPLVNIHLQGRFDTYPKRRGITRVKEMLESGINVCFGHDDVFDPWYPLGTANMLQVLHMGLHVCQLMGYGQINDGLNLITHHSARTLNLQDYGIAAGNSANLIILPAENGFDALRRQVPVRYSVRGGKVIASTQPAQTTVYLEQPEAIDYKR
[4]
  Km: 2520 µM
  kcat: 53.57 s⁻¹
[5]
  melting temperature, reported value: 85 °C
